# Results: patent US20260167699A1 (Chugai, published 2026)
# B1: GpH7-A5/GpH7-B3 variant A330_19Q/GpL16-k0 (antibody, human IgG1, kappa)
# heavy 1: not shown
# heavy 2: not shown
# light: DIVMTQSPLSLPVTPGEPASISCQASESLVHSNRNTYLHWYLQKPGQSPQLLIYKVSNRFSGVPDRFSGSGSGTDFTLKISRVEAEDVGVYYCSQNTHVPPTFGQGTKVEIERTVAAPSVFIFPPSDEQLKSGTASVVCLLNNFYPREAKVQWKVDNALQSGNSQESVTEQDSKDSTYSLSSTLTLSKADYEKHKVYACEVTHQGLSSPVTKSFNRGEC
# notes: He Ab; copies: 1 + 1 + 2
# B2: GpH7-A5/GpH7-B3 variant D270_03V/GpL16-k0 (antibody, human IgG1, kappa)
# heavy 1: not shown
# heavy 2: not shown
# light: DIVMTQSPLSLPVTPGEPASISCQASESLVHSNRNTYLHWYLQKPGQSPQLLIYKVSNRFSGVPDRFSGSGSGTDFTLKISRVEAEDVGVYYCSQNTHVPPTFGQGTKVEIERTVAAPSVFIFPPSDEQLKSGTASVVCLLNNFYPREAKVQWKVDNALQSGNSQESVTEQDSKDSTYSLSSTLTLSKADYEKHKVYACEVTHQGLSSPVTKSFNRGEC
# notes: He Ab; copies: 1 + 1 + 2
# B3: GpH7-A5/GpH7-B3 variant D270_18N/GpL16-k0 (antibody, human IgG1, kappa)
# heavy 1: not shown
# heavy 2: not shown
# light: DIVMTQSPLSLPVTPGEPASISCQASESLVHSNRNTYLHWYLQKPGQSPQLLIYKVSNRFSGVPDRFSGSGSGTDFTLKISRVEAEDVGVYYCSQNTHVPPTFGQGTKVEIERTVAAPSVFIFPPSDEQLKSGTASVVCLLNNFYPREAKVQWKVDNALQSGNSQESVTEQDSKDSTYSLSSTLTLSKADYEKHKVYACEVTHQGLSSPVTKSFNRGEC
# notes: He Ab; copies: 1 + 1 + 2
# B4: GpH7-A5/GpH7-B3 variant D270_07I/GpL16-k0 (antibody, human IgG1, kappa)
# heavy 1: not shown
# heavy 2: not shown
# light: DIVMTQSPLSLPVTPGEPASISCQASESLVHSNRNTYLHWYLQKPGQSPQLLIYKVSNRFSGVPDRFSGSGSGTDFTLKISRVEAEDVGVYYCSQNTHVPPTFGQGTKVEIERTVAAPSVFIFPPSDEQLKSGTASVVCLLNNFYPREAKVQWKVDNALQSGNSQESVTEQDSKDSTYSLSSTLTLSKADYEKHKVYACEVTHQGLSSPVTKSFNRGEC
# notes: He Ab; copies: 1 + 1 + 2
# B5: GpH7-A5/GpH7-B3 variant D270_14T/GpL16-k0 (antibody, human IgG1, kappa)
# heavy 1: not shown
# heavy 2: not shown
# light: DIVMTQSPLSLPVTPGEPASISCQASESLVHSNRNTYLHWYLQKPGQSPQLLIYKVSNRFSGVPDRFSGSGSGTDFTLKISRVEAEDVGVYYCSQNTHVPPTFGQGTKVEIERTVAAPSVFIFPPSDEQLKSGTASVVCLLNNFYPREAKVQWKVDNALQSGNSQESVTEQDSKDSTYSLSSTLTLSKADYEKHKVYACEVTHQGLSSPVTKSFNRGEC
# notes: He Ab; copies: 1 + 1 + 2
# B6: GpH7-A5/GpH7-B3 variant D270_06M/GpL16-k0 (antibody, human IgG1, kappa)
# heavy 1: not shown
# heavy 2: not shown
# light: DIVMTQSPLSLPVTPGEPASISCQASESLVHSNRNTYLHWYLQKPGQSPQLLIYKVSNRFSGVPDRFSGSGSGTDFTLKISRVEAEDVGVYYCSQNTHVPPTFGQGTKVEIERTVAAPSVFIFPPSDEQLKSGTASVVCLLNNFYPREAKVQWKVDNALQSGNSQESVTEQDSKDSTYSLSSTLTLSKADYEKHKVYACEVTHQGLSSPVTKSFNRGEC
# notes: He Ab; copies: 1 + 1 + 2
# B7: GpH7-A5/GpH7-B3 variant E269_06M/GpL16-k0 (antibody, human IgG1, kappa)
# heavy 1: not shown
# heavy 2: not shown
# light: DIVMTQSPLSLPVTPGEPASISCQASESLVHSNRNTYLHWYLQKPGQSPQLLIYKVSNRFSGVPDRFSGSGSGTDFTLKISRVEAEDVGVYYCSQNTHVPPTFGQGTKVEIERTVAAPSVFIFPPSDEQLKSGTASVVCLLNNFYPREAKVQWKVDNALQSGNSQESVTEQDSKDSTYSLSSTLTLSKADYEKHKVYACEVTHQGLSSPVTKSFNRGEC
# notes: He Ab; copies: 1 + 1 + 2
# B8: GpH7-A5/GpH7-B3 variant D270_19Q/GpL16-k0 (antibody, human IgG1, kappa)
# heavy 1: not shown
# heavy 2: not shown
# light: DIVMTQSPLSLPVTPGEPASISCQASESLVHSNRNTYLHWYLQKPGQSPQLLIYKVSNRFSGVPDRFSGSGSGTDFTLKISRVEAEDVGVYYCSQNTHVPPTFGQGTKVEIERTVAAPSVFIFPPSDEQLKSGTASVVCLLNNFYPREAKVQWKVDNALQSGNSQESVTEQDSKDSTYSLSSTLTLSKADYEKHKVYACEVTHQGLSSPVTKSFNRGEC
# notes: He Ab; copies: 1 + 1 + 2
# B9: GpH7-A5/GpH7-B3 variant E269_02A/GpL16-k0 (antibody, human IgG1, kappa)
# heavy 1: not shown
# heavy 2: not shown
# light: DIVMTQSPLSLPVTPGEPASISCQASESLVHSNRNTYLHWYLQKPGQSPQLLIYKVSNRFSGVPDRFSGSGSGTDFTLKISRVEAEDVGVYYCSQNTHVPPTFGQGTKVEIERTVAAPSVFIFPPSDEQLKSGTASVVCLLNNFYPREAKVQWKVDNALQSGNSQESVTEQDSKDSTYSLSSTLTLSKADYEKHKVYACEVTHQGLSSPVTKSFNRGEC
# notes: He Ab; copies: 1 + 1 + 2
# B10: GpH7-A5/GpH7-B3 variant D270_13S/GpL16-k0 (antibody, human IgG1, kappa)
# heavy 1: not shown
# heavy 2: not shown
# light: DIVMTQSPLSLPVTPGEPASISCQASESLVHSNRNTYLHWYLQKPGQSPQLLIYKVSNRFSGVPDRFSGSGSGTDFTLKISRVEAEDVGVYYCSQNTHVPPTFGQGTKVEIERTVAAPSVFIFPPSDEQLKSGTASVVCLLNNFYPREAKVQWKVDNALQSGNSQESVTEQDSKDSTYSLSSTLTLSKADYEKHKVYACEVTHQGLSSPVTKSFNRGEC
# notes: He Ab; copies: 1 + 1 + 2
# B11: GpH7-A5/GpH7-B3 variant E269_03V/GpL16-k0 (antibody, human IgG1, kappa)
# heavy 1: not shown
# heavy 2: not shown
# light: DIVMTQSPLSLPVTPGEPASISCQASESLVHSNRNTYLHWYLQKPGQSPQLLIYKVSNRFSGVPDRFSGSGSGTDFTLKISRVEAEDVGVYYCSQNTHVPPTFGQGTKVEIERTVAAPSVFIFPPSDEQLKSGTASVVCLLNNFYPREAKVQWKVDNALQSGNSQESVTEQDSKDSTYSLSSTLTLSKADYEKHKVYACEVTHQGLSSPVTKSFNRGEC
# notes: He Ab; copies: 1 + 1 + 2
# B12: GpH7-A5/GpH7-B3 variant E269_01G/GpL16-k0 (antibody, human IgG1, kappa)
# heavy 1: not shown
# heavy 2: not shown
# light: DIVMTQSPLSLPVTPGEPASISCQASESLVHSNRNTYLHWYLQKPGQSPQLLIYKVSNRFSGVPDRFSGSGSGTDFTLKISRVEAEDVGVYYCSQNTHVPPTFGQGTKVEIERTVAAPSVFIFPPSDEQLKSGTASVVCLLNNFYPREAKVQWKVDNALQSGNSQESVTEQDSKDSTYSLSSTLTLSKADYEKHKVYACEVTHQGLSSPVTKSFNRGEC
# notes: He Ab; copies: 1 + 1 + 2
# B13: GpH7-A5/GpH7-B3 variant D270_08L/GpL16-k0 (antibody, human IgG1, kappa)
# heavy 1: not shown
# heavy 2: not shown
# light: DIVMTQSPLSLPVTPGEPASISCQASESLVHSNRNTYLHWYLQKPGQSPQLLIYKVSNRFSGVPDRFSGSGSGTDFTLKISRVEAEDVGVYYCSQNTHVPPTFGQGTKVEIERTVAAPSVFIFPPSDEQLKSGTASVVCLLNNFYPREAKVQWKVDNALQSGNSQESVTEQDSKDSTYSLSSTLTLSKADYEKHKVYACEVTHQGLSSPVTKSFNRGEC
# notes: He Ab; copies: 1 + 1 + 2
# B14: GpH7-A5/GpH7-B3 variant D270_02A/GpL16-k0 (antibody, human IgG1, kappa)
# heavy 1: not shown
# heavy 2: not shown
# light: DIVMTQSPLSLPVTPGEPASISCQASESLVHSNRNTYLHWYLQKPGQSPQLLIYKVSNRFSGVPDRFSGSGSGTDFTLKISRVEAEDVGVYYCSQNTHVPPTFGQGTKVEIERTVAAPSVFIFPPSDEQLKSGTASVVCLLNNFYPREAKVQWKVDNALQSGNSQESVTEQDSKDSTYSLSSTLTLSKADYEKHKVYACEVTHQGLSSPVTKSFNRGEC
# notes: He Ab; copies: 1 + 1 + 2
# B15: GpH7-A5/GpH7-B3 variant D270_10E/GpL16-k0 (antibody, human IgG1, kappa)
# heavy 1: not shown
# heavy 2: not shown
# light: DIVMTQSPLSLPVTPGEPASISCQASESLVHSNRNTYLHWYLQKPGQSPQLLIYKVSNRFSGVPDRFSGSGSGTDFTLKISRVEAEDVGVYYCSQNTHVPPTFGQGTKVEIERTVAAPSVFIFPPSDEQLKSGTASVVCLLNNFYPREAKVQWKVDNALQSGNSQESVTEQDSKDSTYSLSSTLTLSKADYEKHKVYACEVTHQGLSSPVTKSFNRGEC
# notes: He Ab; copies: 1 + 1 + 2
# B16: GpH7-A5/GpH7-B3 variant A330_20W/GpL16-k0 (antibody, human IgG1, kappa)
# heavy 1: not shown
# heavy 2: not shown
# light: DIVMTQSPLSLPVTPGEPASISCQASESLVHSNRNTYLHWYLQKPGQSPQLLIYKVSNRFSGVPDRFSGSGSGTDFTLKISRVEAEDVGVYYCSQNTHVPPTFGQGTKVEIERTVAAPSVFIFPPSDEQLKSGTASVVCLLNNFYPREAKVQWKVDNALQSGNSQESVTEQDSKDSTYSLSSTLTLSKADYEKHKVYACEVTHQGLSSPVTKSFNRGEC
# notes: He Ab; copies: 1 + 1 + 2
# Target: T1, FcγRIIIa extracellular domain, C-terminal His tag (human, UniProt P08637 17-208)
# T1 construct: extracellular domain; also called 3a
# T1 sequence (P08637 other isoform, or with tags, fused parts or gaps): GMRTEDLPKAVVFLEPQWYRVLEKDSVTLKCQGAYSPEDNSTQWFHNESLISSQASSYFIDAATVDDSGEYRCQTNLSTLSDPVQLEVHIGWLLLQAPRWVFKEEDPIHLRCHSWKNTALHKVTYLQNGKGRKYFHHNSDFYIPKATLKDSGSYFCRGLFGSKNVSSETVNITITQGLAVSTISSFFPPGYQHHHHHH
# Assay: SPR, binding activity relative to GpH7-A5/GpH7-B3/GpL16-k0 (=100)
row,Binder,He/Con 3a [%]
1,B1,86.3
2,B2,54.6
3,B3,51.2
4,B4,63.1
5,B5,55.4
6,B6,60
7,B7,57.9
8,B8,74.2
9,B9,68
10,B10,51.4
11,B11,56
12,B12,61.6
13,B13,65.1
14,B14,50.5
15,B15,112
16,B16,102
